Source: patent US20260250410A1, “ANTIBODY AND USE THEREOF” (SICHUAN HUIYU PHARMACEUTICAL CO., LTD., priority 2022, published 2026)

T1: HuCDCP1-C (Homo sapiens, UniProt Q9H5V8)
T1 construct: made in house; host or cells: HEK-293T
T1 sequence (Q9H5V8 30-667): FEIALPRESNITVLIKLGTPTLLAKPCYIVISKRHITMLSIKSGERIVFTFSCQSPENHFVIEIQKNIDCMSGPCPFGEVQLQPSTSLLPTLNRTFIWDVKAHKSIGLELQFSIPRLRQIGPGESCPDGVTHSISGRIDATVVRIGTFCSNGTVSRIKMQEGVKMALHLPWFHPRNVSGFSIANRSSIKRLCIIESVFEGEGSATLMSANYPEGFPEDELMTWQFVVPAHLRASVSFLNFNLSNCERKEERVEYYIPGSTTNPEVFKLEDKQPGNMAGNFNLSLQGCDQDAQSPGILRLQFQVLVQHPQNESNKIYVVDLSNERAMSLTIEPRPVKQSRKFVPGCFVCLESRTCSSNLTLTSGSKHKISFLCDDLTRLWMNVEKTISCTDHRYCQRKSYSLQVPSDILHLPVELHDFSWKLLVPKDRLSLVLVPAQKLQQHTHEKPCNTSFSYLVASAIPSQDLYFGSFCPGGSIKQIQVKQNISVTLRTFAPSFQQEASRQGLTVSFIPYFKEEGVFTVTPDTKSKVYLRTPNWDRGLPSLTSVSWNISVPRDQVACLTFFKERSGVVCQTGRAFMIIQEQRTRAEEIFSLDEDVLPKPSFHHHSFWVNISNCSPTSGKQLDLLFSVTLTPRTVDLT


Molecular target: T1, HuCDCP1-C
Assay: Caterra affinity of humanized anti-CDCP1 antibodies
Type: binding
Details: HuCDCP1-C 2 μg/ml immobilized
Procedure: The humanized anti-CDCP1 antibodies obtained from Example 11 were subjected to gene cloning, constructed into pTT5 expression vector for a small amount of expression in CHO cells (Expi-CHOS: Gibco A29127), and purified with an Fc affinity column (AT Protein A Diamond Plus. No. AA402312). Antibody purity was analyzed by HPLC and determined by Nanodrop. High-throughput affinity assay was carried out for a small amount of antibodies by Caterra.

Molecule | ka | kd
1CP-118: humanized anti-CDCP1 antibody produced by 8E5; VH SEQ ID NO: 349, VL SEQ ID NO: 358 (antibody, V domains shown, humanized antibody 8E5 heavy chain variable region 03; humanized antibody 8E5 light chain variable region 02) VH: QVQLVQSGSELKKPGESVKVSCKASGYTLTDFSMHWVRQAPGQGLEWMGWINTETGAPTYADDFKGRFVLSLDTSVSTAYLQISSLKSEDTAVYYCSRGRDYDPHFDYWGQGTLVTVSS VL: EIVLTQSPATLSLSPGERATLSCRASQSISDFLHWYQQKPGQSPRLLIKYASQSISGIPARFSGSGSGSDFTLTISSVEPEDFAVYYCQSAHSFPYTFGQGTKLEIK | 168000 M⁻¹ s⁻¹ | 0.00225 s⁻¹
1CP-119: humanized anti-CDCP1 antibody produced by 8E5; VH SEQ ID NO: 350, VL SEQ ID NO: 358 (antibody, V domains shown, humanized antibody 8E5 heavy chain variable region 04; humanized antibody 8E5 light chain variable region 02) VH: QVQLQQSGSELKKPGESVKLSCKASGYTLTDFSMHWVRQAPGQGLKWMGWINTETGAPTYADDFKGRFVFSLDTSVSMAYLQISSLKSEDTAVYYCSRGRDYDPHFDYWGQGTLVTVSS VL: EIVLTQSPATLSLSPGERATLSCRASQSISDFLHWYQQKPGQSPRLLIKYASQSISGIPARFSGSGSGSDFTLTISSVEPEDFAVYYCQSAHSFPYTFGQGTKLEIK | 226000 M⁻¹ s⁻¹ | 0.00124 s⁻¹
1CP-120: humanized anti-CDCP1 antibody produced by 8E5; VH SEQ ID NO: 347, VL SEQ ID NO: 359 (antibody, V domains shown, humanized antibody 8E5 heavy chain variable region 01; humanized antibody 8E5 light chain variable region 03) VH: QVQLVQSGSELKKPGASVKVSCKASGYTLTDFSMHWVRQAPGQGLEWMGWINTETGAPTYADDFKGRFVFSLDTSVSTAYLQISSLKAEDTAVYYCSRGRDYDPHFDYWGQGTLVTVSS VL: EIVLTQSPATLSLSPGERATLSCRASQSISDFLHWYQQKSGQSPRLLIKYASQSISGIPARFSGSGSGSDFTLTISSVEPEDFAVYYCQSAHSFPYTFGQGTKLEIK | 139000 M⁻¹ s⁻¹ | 1.7e-05 s⁻¹

Next, values leading:

ka | kd | Molecule
199000 M⁻¹ s⁻¹ | 0.00227 s⁻¹ | 1CP-123: humanized anti-CDCP1 antibody produced by 8E5; VH SEQ ID NO: 350, VL SEQ ID NO: 359 (antibody, V domains shown, humanized antibody 8E5 heavy chain variable region 04; humanized antibody 8E5 light chain variable region 03) VH: QVQLQQSGSELKKPGESVKLSCKASGYTLTDFSMHWVRQAPGQGLKWMGWINTETGAPTYADDFKGRFVFSLDTSVSMAYLQISSLKSEDTAVYYCSRGRDYDPHFDYWGQGTLVTVSS VL: EIVLTQSPATLSLSPGERATLSCRASQSISDFLHWYQQKSGQSPRLLIKYASQSISGIPARFSGSGSGSDFTLTISSVEPEDFAVYYCQSAHSFPYTFGQGTKLEIK
167000 M⁻¹ s⁻¹ | 0.00209 s⁻¹ | 1CP-122: humanized anti-CDCP1 antibody produced by 8E5; VH SEQ ID NO: 349, VL SEQ ID NO: 359 (antibody, V domains shown, humanized antibody 8E5 heavy chain variable region 03; humanized antibody 8E5 light chain variable region 03) VH: QVQLVQSGSELKKPGESVKVSCKASGYTLTDFSMHWVRQAPGQGLEWMGWINTETGAPTYADDFKGRFVLSLDTSVSTAYLQISSLKSEDTAVYYCSRGRDYDPHFDYWGQGTLVTVSS VL: EIVLTQSPATLSLSPGERATLSCRASQSISDFLHWYQQKSGQSPRLLIKYASQSISGIPARFSGSGSGSDFTLTISSVEPEDFAVYYCQSAHSFPYTFGQGTKLEIK
